Patent US20240150402

B1: Human plasmin (protein)
chain: KVYLSECKTGNGKNYRGTMSKTKNGITCQKWSSTSPHRPRFSPATHPSEGLEENYCRNPDNDPQGPWCYTTDPEKRYDYCDILECEEECMHCSGENYDGKISKTMSGLECQAWDSQSPHAHGYIPSKFPNKNLKKNYCRNPDRELRPWCFTTDPNKRWELCDIPRCTTPPPSSGPTYQCLKGTGENYRGNVAVTVSGHTCQHWSAQTPHTHNRTPENFPCKNLDENYCRNPDGKRAPWCHTTNSQVRWEYCKIPSCDSSPVSTEQLAPTAPPELTPVVQDCYHGDGQSYRGTSSTTTTGKKCQSWSSMTPHRHQKTPENYPNAGLTMNYCRNPDADKGPWCFTTDPSVRWEYCNLKKCSGTEASVVAPPPVVLLPDVETPSEEDCMFGNGKGYRGKRATTVTGTPCQDWAAQEPHRHSIFTPETNPRAGLEKNYCRNPDGDVGGPWCYTTNPRKLYDYCDVPQCAAPSFDCGKPQVEPKKCPGRVVGGCVAHPHSWPWQVSLRTRFGMHFCGGTLISPEWVLTAAHCLEKSPRPSSYKVILGAHQEVNLEPHVQEIEVSRLFLEPTRKDIALLKLSSPAVITDKVIPACLPSPNYVVADRTECFITGWGETQGTFGAGLLKEAQLPVIENKVCNRYEFLNGRVQSTELCAGHLAGGTDSCQGDSGGPLVCFEKDKYILQGVTSWGLGCARPNKPGVYVRVSRFVTWIEGVMRNN
B2: Human tPA (protein)
chain: SYQVICRDEKTQMIYQQHQSWLRPVLRSNRVEYCWCNSGRAQCHSVPVKSCSEPRCFNGGTCQQALYFSDFVCQCPEGFAGKCCEIDTRATCYEDQGISYRGTWSTAESGAECTNWNSSALAQKPYSGRRPDAIRLGLGNHNYCRNPDRDSKPWCYVFKAGKYSSEFCSTPACSEGNSDCYFGNGSAYRGTHSLTESGASCLPWNSMILIGKVYTAQNPSAQALGLGKHNYCRNPDGDAKPWCHVLKNRRLTWEYCDVPSCSTCGLRQYSQPQFRIKGGLFADIASHPWQAAIFAKHRRSPGERFLCGGILISSCWILSAAHCFQERFPPHHLTVILGRTYRVVPGEEEQKFEVEKYIVHKEFDDDTYDNDIALLQLKSDSSRCAQESSVVRTVCLPPADLQLPDWTECELSGYGKHEALSPFYSERLKEAHVRLYPSSRCTSQHLLNRTVTDNMLCAGDTRSGGPQANLHDACQGDSGGPLVCLNDGRMTLVGIISWGLGCGQKDVPGVYTKVTNYLDWIRDNMRP
B3: Human matriptase-1 (protein)
chain: GSDEKDCDCGLRSFTRQARVVGGTDADEGEWPWQVSLHALGQGHICGASLISPNWLVSAAHCYIDDRGFRYSDPTQWTAFLGLHDQSQRSAPGVQERRLKRIISHPFFNDFTFDYDIALLELEKPAEYSSMVRPICLPDASHVFPAGKAIWVTGWGHTQYGGTGALILQKGEIRVINQTTCENLLPQQITPRMMCVGFLSGGVDSCQGDSGGPLSSVEADGRIFQAGVVSWGDGCAQRNKPGVYTRLPLFRDWIKENTGV

Key:
[1] = target: Final pools of substrates selected with recombinant human matriptase-1
[2] = target: activatable antibodies comprising substrates selected for cleavage by matriptase (5 substrates tested), having the 3954 mask and C225v5 variant of cetuximab
[3] = target: activatable antibodies comprising substrates selected for cleavage by uPA and matriptase (7 substrates tested), having the 3954 mask and C225v5 variant of cetuximab

Row | Protein | cleavage (flow cytometry of displayed substrate pools) [1] | cleavage (flow cytometry of displayed substrate pool) (pool SMP17) | kcat/KM [2] | kcat/KM [3]
1 | B1 | but not by tPA or plasmin | – | – | –
2 | B2 | but not by tPA or plasmin | resistance to tPA | – | –
3 | B3 | The pools were cleaved by matriptase-1 | – | kcat/KM values ranging from about 6,500 to 100,000 M^-1s^-1 for matriptase (5 substrates tested) | from about 3,000 to 100,000 M^-1s^-1 for matriptase (7 substrates tested)
